Assay results taken from patent publication US20210269476A1.

B1: R3-26 repCK+K3 (scFv)
scFv: QEQLVESGGGLVTPGGTLTLTCTVSGIDLSSYAMSWVRQVPGEGLEWIGIIGSGGGTAYANWARGRFTISRTSSTTVDLRMTSLTTEDTATYFCATDYGIYGYAYGHLWGPGTLVTVTSGGGGSGGGGSGGGGSELVMTQTASPVSAAVGGTVTINCQASQSISTALAWYQQRPGQPPRLLIYDASTLASGVSSRFSGSGSGTEFTLTISDLESADAATYYCQTYFGSDTDNAFGEGTEVEITGSAAAGGGGSKKKIE
B2: R3-26 repCK+K5 (scFv)
scFv: QEQLVESGGGLVTPGGTLTLTCTVSGIDLSSYAMSWVRQVPGEGLEWIGIIGSGGGTAYANWARGRFTISRTSSTTVDLRMTSLTTEDTATYFCATDYGIYGYAYGHLWGPGTLVTVTSGGGGSGGGGSGGGGSELVMTQTASPVSAAVGGTVTINCQASQSISTALAWYQQRPGQPPRLLIYDASTLASGVSSRFSGSGSGTEFTLTISDLESADAATYYCQTYFGSDTDNAFGEGTEVEITGSAAAGGGGSKKKKKIE
B3: R3-26 repCK+K (scFv)
scFv: QEQLVESGGGLVTPGGTLTLTCTVSGIDLSSYAMSWVRQVPGEGLEWIGIIGSGGGTAYANWARGRFTISRTSSTTVDLRMTSLTTEDTATYFCATDYGIYGYAYGHLWGPGTLVTVTSGGGGSGGGGSGGGGSELVMTQTASPVSAAVGGTVTINCQASQSISTALAWYQQRPGQPPRLLIYDASTLASGVSSRFSGSGSGTEFTLTISDLESADAATYYCQTYFGSDTDNAFGEGTEVEITGSAAAGGGGSKIE

Tests used:
[1] = target: human serum-derived IgG polyclonal antibody (WAKO) (human); experiment: affinity column breakthrough curve; scFv (5.0 mg) immobilized on HiTrap NHS-activated HP 1 mL, polyclonal human IgG 1 mg/mL at 1 mL/min
[2] = target: human IgG1 (coupled to the sensor chip) (human); experiment: SPR, Biacore X-100, single cycle kinetics, human IgG1 coupled to the chip, scFv as analyte
[3] = target: human serum-derived IgG polyclonal antibody (WAKO) (human); experiment: affinity column breakthrough curve; scFv immobilized on HiTrap NHS-activated HP 1 mL, polyclonal human IgG 1 mg/mL at 1 mL/min

| Binder | [10% DBC (mg/mL) at flow rate of 1.0 mL/min]/[amount of protein immobilized on column (mg)] [1] | Kd [2] [nM] | koff [2] [s⁻¹] | kon [2] [M⁻¹ s⁻¹] | [10% DBC (mg/mL) at flow rate of 1.0 mL/min]/[amount of protein immobilized on column (mg)] [3] |
| --- | --- | --- | --- | --- | --- |
| B1 | 1.26 (mg/mL)/mg | 1.7 | 0.0001 | 61000 | – |
| B2 | 1.4 (mg/mL)/mg | 2.4 | 0.00017 | 70000 | – |
| B3 | – | 1.6 | 9.1e-05 | 56000 | 0.63 (mg/mL)/mg |
